{
  "source": "paper PMC2907309",
  "biological_target": "MazF (E. coli) (UniProt P0AE70)",
  "sequence (P0AE70 whole entry)": "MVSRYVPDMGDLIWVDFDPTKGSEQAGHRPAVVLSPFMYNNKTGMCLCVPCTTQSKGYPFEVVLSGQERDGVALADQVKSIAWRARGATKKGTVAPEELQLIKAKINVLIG",
  "data": [
    {"substance": "His-MazE (from UniProt P0AE72 1-82) (natural protein)", "values": [
      {"measurement": "recovery of Luc production (end-point) in a cell-free reaction made of MazF crude extract, against the concentration of pure MazE added", "result": 0.6, "unit": "µM"},
      {"measurement": "recovery of deGFP production (end-point) in a cell-free reaction made of MazF crude extract, against the concentration of pure MazE added", "result": 0.4, "unit": "µM"}
    ]}
  ]
}
